Source: patent US20240270846A1 (published 2024)
Substitutions are numbered along the chain they refer to. In names and notes the source's numbering stands.

B1: GLS3000 G91A one-arm antibody (antibody, human IgG1, kappa, L234A L235A, N297A, name in Kabat numbering)
light: DIVMTQSPLSLPVTPGEPASISCRSSQSLVHSNRNTYLHWYQQKPGQAPRLLIYKVSNRFSGVPDRFSGSGSGTDFTLKISRVEAEDVGVYYCGQATQVPYTFGQGTKLEIKRTVAAPSVFIFPPSDEQLKSGTASVVCLLNNFYPREAKVQWKVDNALQSGNSQESVTEQDSKDSTYSLSSTLTLSKADYEKHKVYACEVTHQGLSSPVTKSFNRGEC
heavy: QVQLVESGGGVVQPGRSLRLSCAASGFTFSNAWMHWVRQAPGKGLEWVAQIKAKSNNYATYYAESVKGRFTISRDDSKNSLYLQMNSLKTEDTAVYYCRYVHYGAYYGVDAWGQGTTVTVSSASTKGPSVFPLAPSSKSTSGGTAALGCLVKDYFPEPVTVSWNSGALTSGVHTFPAVLQSSGLYSLSSVVTVPSSSLGTQTYICNVNHKPSNTKVDKKVEPKSCDKTHTCPPCPAPEAAGGPSVFLFPPKPKDTLMISRTPEVTCVVVDVSHEDPEVKFNWYVDGVEVHNAKTKPREEQYASTYRVVSVLTVLHQDWLNGKEYKCKVSNKALPAPIEKTISKAKGQPREPQVYTLPPSRCELTKNQVSLSCAVKGFYPSDIAVEWESNGQPENNYKTTPPVLDSDGSFFLVSKLTVDKSRWQQGNVFSCSVMHEALHNHYTQKSLSLSPDYKDDDDK
chain: EPKSSDKTHTCPPCPAPELLGGPSVFLFPPKPKDTLMISRTPEVTCVVVDVSHEDPEVKFNWYVDGVEVHNAKTKPREEQYNSTYRVVSVLTVLHQDWLNGKEYKCKVSNKALPAPIEKTISKAKGQPREPQVCTLPPSRDELTKNQVSLWCLVKGFYPSDIAVEWESNGQPENNYKTTPPVLDSDGSFFLYSKLTVDKSRWQQGNVFSCSVMHEALHNRYTQKSLSLSP
B2: GLS3000 H34E one-arm antibody (antibody, human IgG1, kappa, L234A L235A, N297A, name in Kabat numbering)
light: B1 light with H39E, A96G
heavy: B1 heavy
chain: B1 chain
B3: GLS3000 G91D one-arm antibody (antibody, human IgG1, kappa, L234A L235A, N297A, name in Kabat numbering)
light: B1 light with A96D
heavy: B1 heavy
chain: B1 chain
B4: GLS3000 G91T one-arm antibody (antibody, human IgG1, kappa, L234A L235A, N297A, name in Kabat numbering)
light: B1 light with A96T
heavy: B1 heavy
chain: B1 chain
B5: GLS3000 K50P one-arm antibody (antibody, human IgG1, kappa, L234A L235A, N297A, name in Kabat numbering)
light: B1 light with K55P, A96G
heavy: B1 heavy
chain: B1 chain
B6: GLS3000 H34Q one-arm antibody (antibody, human IgG1, kappa, L234A L235A, N297A, name in Kabat numbering)
light: B1 light with H39Q, A96G
heavy: B1 heavy
chain: B1 chain
B7: GLS3000 G91S one-arm antibody (antibody, human IgG1, kappa, L234A L235A, N297A, name in Kabat numbering)
light: B1 light with A96S
heavy: B1 heavy
chain: B1 chain
B8: GLS3000 H34P one-arm antibody (antibody, human IgG1, kappa, L234A L235A, N297A, name in Kabat numbering)
light: B1 light with H39P, A96G
heavy: B1 heavy
chain: B1 chain
B9: GLS3000 H34Y one-arm antibody (antibody, human IgG1, kappa, L234A L235A, N297A, name in Kabat numbering)
light: B1 light with H39Y, A96G
heavy: B1 heavy
chain: B1 chain
B10: GLS3000 K50L one-arm antibody (antibody, human IgG1, kappa, L234A L235A, N297A, name in Kabat numbering)
light: B1 light with K55L, A96G
heavy: B1 heavy
chain: B1 chain
B11: GLS3000 K50Y one-arm antibody (antibody, human IgG1, kappa, L234A L235A, N297A, name in Kabat numbering)
light: B1 light with K55Y, A96G
heavy: B1 heavy
chain: B1 chain
B12: GLS3000 H34N one-arm antibody (antibody, human IgG1, kappa, L234A L235A, N297A, name in Kabat numbering)
light: B1 light with H39N, A96G
heavy: B1 heavy
chain: B1 chain
B13: GLS3000 H34R one-arm antibody (antibody, human IgG1, kappa, L234A L235A, N297A, name in Kabat numbering)
light: B1 light with H39R, A96G
heavy: B1 heavy
chain: B1 chain
B14: GLS3000 K50E one-arm antibody (antibody, human IgG1, kappa, L234A L235A, N297A, name in Kabat numbering)
light: B1 light with K55E, A96G
heavy: B1 heavy
chain: B1 chain
B15: GLS3000 H34I one-arm antibody (antibody, human IgG1, kappa, L234A L235A, N297A, name in Kabat numbering)
light: B1 light with H39I, A96G
heavy: B1 heavy
chain: B1 chain
B16: GLS3000 H34M one-arm antibody (antibody, human IgG1, kappa, L234A L235A, N297A, name in Kabat numbering)
light: B1 light with H39M, A96G
heavy: B1 heavy
chain: B1 chain
B17: GLS3000 H34G one-arm antibody (antibody, human IgG1, kappa, L234A L235A, N297A, name in Kabat numbering)
light: B1 light with H39G, A96G
heavy: B1 heavy
chain: B1 chain
B18: GLS3000 K50T one-arm antibody (antibody, human IgG1, kappa, L234A L235A, N297A, name in Kabat numbering)
light: B1 light with K55T, A96G
heavy: B1 heavy
chain: B1 chain
B19: GLS3000 H34K one-arm antibody (antibody, human IgG1, kappa, L234A L235A, N297A, name in Kabat numbering)
light: B1 light with H39K, A96G
heavy: B1 heavy
chain: B1 chain
B20: GLS3000 K50Q one-arm antibody (antibody, human IgG1, kappa, L234A L235A, N297A, name in Kabat numbering)
light: B1 light with K55Q, A96G
heavy: B1 heavy
chain: B1 chain
B21: GLS3000 K74T one-arm antibody (antibody, human IgG1, kappa, L234A L235A, N297A, name in Kabat numbering)
light: B1 light with K79T, A96G
heavy: B1 heavy
chain: B1 chain
B22: GLS3000 H34L one-arm antibody (antibody, human IgG1, kappa, L234A L235A, N297A, name in Kabat numbering)
light: B1 light with H39L, A96G
heavy: B1 heavy
chain: B1 chain
B23: GLS3000 H34S one-arm antibody (antibody, human IgG1, kappa, L234A L235A, N297A, name in Kabat numbering)
light: B1 light with H39S, A96G
heavy: B1 heavy
chain: B1 chain
B24: GLS3000 K107E one-arm antibody (antibody, human IgG1, kappa, L234A L235A, N297A, name in Kabat numbering)
light: B1 light with A96G, K112E
heavy: B1 heavy
chain: B1 chain
B25: GLS3000 K50R one-arm antibody (antibody, human IgG1, kappa, L234A L235A, N297A, name in Kabat numbering)
light: B1 light with K55R, A96G
heavy: B1 heavy
chain: B1 chain
B26: GLS3000 H34F one-arm antibody (antibody, human IgG1, kappa, L234A L235A, N297A, name in Kabat numbering)
light: B1 light with H39F, A96G
heavy: B1 heavy
chain: B1 chain
B27: GLS3000 K50S one-arm antibody (antibody, human IgG1, kappa, L234A L235A, N297A, name in Kabat numbering)
light: B1 light with K55S, A96G
heavy: B1 heavy
chain: B1 chain
B28: GLS3000 H34T one-arm antibody (antibody, human IgG1, kappa, L234A L235A, N297A, name in Kabat numbering)
light: B1 light with H39T, A96G
heavy: B1 heavy
chain: B1 chain
B29: GLS3000 G91E one-arm antibody (antibody, human IgG1, kappa, L234A L235A, N297A, name in Kabat numbering)
light: B1 light with A96E
heavy: B1 heavy
chain: B1 chain
B30: GLS3000 K50G one-arm antibody (antibody, human IgG1, kappa, L234A L235A, N297A, name in Kabat numbering)
light: B1 light with K55G, A96G
heavy: B1 heavy
chain: B1 chain
B31: GLS3000 H34V one-arm antibody (antibody, human IgG1, kappa, L234A L235A, N297A, name in Kabat numbering)
light: B1 light with H39V, A96G
heavy: B1 heavy
chain: B1 chain
B32: GLS3000 H34W one-arm antibody (antibody, human IgG1, kappa, L234A L235A, N297A, name in Kabat numbering)
light: B1 light with H39W, A96G
heavy: B1 heavy
chain: B1 chain
B33: GLS3000 G91P one-arm antibody (antibody, human IgG1, kappa, L234A L235A, N297A, name in Kabat numbering)
light: B1 light with A96P
heavy: B1 heavy
chain: B1 chain

These binders were tested against T1, CD3 epsilon homodimer protein (UniProt P07766 23-126) (assay: SPR Biacore T200, CD3e homodimer on chip, antibody analyte;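 note: CD3 epsilon homodimer amine-coupled on CM4 sensor chip, antibodies injected as analyte at 25 °C in HBS-EP+, ratio ≥0.8 taken as binding retained versus unaltered parent antibody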).
T1 construct: Construct of the homodimer is not described; also called CD3 (CD3 epsilon)
T1 sequence (P07766 23-126): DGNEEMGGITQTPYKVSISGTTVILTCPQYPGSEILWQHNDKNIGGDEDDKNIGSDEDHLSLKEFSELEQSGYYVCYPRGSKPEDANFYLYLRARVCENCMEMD

ratio of amounts bound (altered form/GLS3000)	Binder
0.27	B1
0.23	B2
0.16	B3
0.26	B4
0.3	B5
0.25	B6
0.26	B7
0.34	B8
0.59	B9
0.24	B10
0.24	B11
0.65	B12
0.2	B13
0.24	B14
0.65	B15
0.35	B16
1.02	B17

ratio of amounts bound (altered form/GLS3000)	Binder
0.19	B18
2.17	B19
0.18	B20
0.84	B21
0.59	B22
0.78	B23
0.94	B24
0.5	B25
0.27	B26
0.23	B27
0.89	B28
0.16	B29
0.16	B30
0.85	B31
0.24	B32
0.27	B33
